These results are taken from paper PMC8130932 (PLoS Pathogens, 2021).

Test [1] deals with T1, SARS-CoV-2 spike glycoprotein S1+S2 extracellular domain (SARS-CoV-2, reference sequence, UniProt P0DTC2).
T1 construct: also called full-length spike glycoprotein ectodomain
The experiment in a line: ELISA.

The target of test [2] is T2, SARS-CoV-2 spike glycoprotein, full-length, prefusion-stabilised, on MDCK-SIAT1 cells (SARS-CoV-2, reference sequence, UniProt P0DTC2, 986KV987 to 986PP987 | 682RRAR685 to 682GSAG685).
T2 construct: also called MDCK-Spike
In words: flow cytometry on cells. The conditions noted are these: one partner purified. For orientation: In flow cytometry, cells or beads pass a laser one at a time.

Residue numbers refer to the chain shown, from its start.

B1: FD 11C (antibody, V domains shown)
VH: EVQLLESGPGLVKPSETLSLTCTVSGGSISSSSYYWGWIRQPPGKGLEWIGSIYYSGSTYYNPSLKSRVTISVDTSKNQFSLKLSSVTAADTAVYYCAREYYYGSETKKYYYYYGMDVWGQGTTVTVSS
VL: not shown
notes: source: HEK293T, transfected; culture supernatant or purified
For B1, the OD450 in test [1] is 1.2 OD450. In addition, the binding result in test [2] is “binds”.

B2: FD 7C (antibody, V domains shown)
VH: QLQLQESGPGLVKPSETLSLTCTVSGGSISSYYWSWIRQPPGKGLEWIGYIYYSGSTNYNPSLKSRVTISVDTSKNQFSLKLSSVTAADTAVYYCARDYRFGELFGRFAWFDPWGQGTLVTVSS
VL: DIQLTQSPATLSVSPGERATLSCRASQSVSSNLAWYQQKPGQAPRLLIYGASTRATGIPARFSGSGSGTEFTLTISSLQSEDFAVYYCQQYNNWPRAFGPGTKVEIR
notes: as for B1
As for B2, in test [1], the OD450 worked out at 1.9 OD450. Moreover, in test [2], the binding result is “binds”.

B3: EW 9C (antibody, V domains shown)
VH: EVQLVESGGGVVQPGASLRLSCVASGFTFNNFGFHWVRQAPGKGLEWLAVISYEGSKTYYAESLKGRFTISRDTSKNTVYLQMNSLRAEDTAVYYCARATSIFWFGEGRNWFDPWGQGTMVTVSS
VL: EIVLTQSPGTVSLSAGERATLSCRASQNVGTDLAWYVQRPGQAPRLLIYDTSNKATGIPARFSGRGSGTDFTLTIDSLEPEDFAVYYCQQRSNWPLTFGGGTKVEIR
notes: as for B1
For B3, in test [1], the OD450 is 1.22 OD450. Besides, the binding result in test [2] is on record as “binds”.

B4: FB 1E (antibody, V domains shown)
VH: EVQLVESGAEVKKPGESLKISCQGSGYRFNSYWIAWVRQMPGKGLEWMGSIFPTDSDIRYNPSFQGQVTISADKSISIAYLQWSSLKASDTAIYYCARHWASMVRGVIRASHYYGMDVWGQGTTVTVSS
VL: QSVLTQPPSASGSPGQSVTISCSGASSDIGDYNYVSWYQQLPGKAPKLLIYEVTKRPSGVPDRFSGSKSGNTASLTVSGLQADDEADYYCSSYAFGGSDIRVFGGGTKLAVL
notes: as for B1
The molecule B4 came in with an OD450 in test [1] of 1.4 OD450. Moreover, the binding result in test [2] is “binds”.

B5: FD 7D (antibody, V domains shown)
VH: EVQLVESGAEVKKPGESLRISCKGSGYSFTSYWISWVRQMPGKGLEWMGRIDPSDSYTNYSPSFQGHVTISADKSISTAYLQWSSLKASDTAMYYCARHSDCSSTSCYFVDAFDIWGQGTMVTVSS
VL: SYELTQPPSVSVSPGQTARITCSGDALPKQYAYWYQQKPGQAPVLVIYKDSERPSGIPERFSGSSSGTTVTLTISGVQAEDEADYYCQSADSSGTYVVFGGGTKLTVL
notes: as for B1
In test [1], B5 gave an OD450 of 1.44 OD450.

B6: FD 5E (antibody, V domains shown)
VH: EVQLVESGGVVVQPGGSLRLSCAASGFTFDDYAMHWVRQAPGKGLEWVSLISWDGGSTYYADSVKGRFTISRDNSKNSLYLQMNSLRAEDTALYYCAKDSVRFRYYYGMDVWGQGTTVTVSS
VL: EIVLTQSPATLSLSPGERATLSCRASQSVSSYLAWYQQKPGQAPRLLIYDASNRATGIPARFSGSGSGTDFTLTISSLEPEDFAVYYCQQRSNWPLTFGPGTKVDIK
notes: as for B1
Consider B6, for which the OD450 in test [1] was found to be 0.34 OD450. The binding result in test [2] is recorded as “binds”.

B7: FD 1D (antibody, V domains shown)
VH: EVQLVESGGGVVQPGRSLRLSCAASGFTFSSYAMHWVRQAPGKGLEWVAVISYDGSNKYYADSVKGRFTISRDNSKNTLYLQMNSLRAEDTAVYYCARAGSGSYLNWFDPWGQGTLVTVSS
VL: B6 VL with L96I, P100Q, K103R, V104L, D105E
notes: as for B1
In the case of B7, the OD450 in test [1] was found to be 0.4 OD450.

B8: EW 9B (antibody, V domains shown)
VH: EVQLVQSGAEVKKPGASVKVSCKASGYTFTSYYMHWVRQAPGQGLEWMGIINPSGGSTSYAQKFQGRVTMTRDTSTSTVYMELSSLRSEDTAVYYCAREDGVVPAANLMISLEDYYYYGMDVWGQGTTVTVSS
VL: B6 VL with P100G
notes: as for B1
Molecule B8 returned an OD450 in test [1] of 0.22 OD450.

B9: FJ 1C (antibody, V domains shown)
VH: QVQLQESGPGLVKPSETLSLTCTVSGYSISSGYYWGWIRQPPGKGLEWIGSIYHSGSTYYNPSLKSRVTISVDTSKNQFSLKLSSVTAADTAVYYCARDKALLWFGELFTNLFDYWGQGTLVTVSS
VL: QSALTQPASVSGSPGQSITISCTGTSSDVGGYNYVSWYQQHPGKAPKLMIYEVSNRPSGVSNRFSGSKSGNTASLTISGLQAEDEANYYCSSYTSSSTLVFGGGTKLTVL
notes: as for B1
Turning to B9, in test [1], the OD450 is 1.61 OD450.

B10: FN 12A (antibody, V domains shown)
VH: QVQLVQSGAEVKKPGSSVKVSCKASGGTFSSYAISWVRQAPGQGLEWMGRIIPILGIANYAQKFQGRVTITADKSTSTAYMELSSLRSEDTAVYYCARSGCSSTSCPSNLYYYYYGMDVWGQGTTVTVSS
VL: QSVLTQPPSVSAAPGQKVTISCSGSSSNIGNNYVSWYQQLPGTAPKLLIYDNNKRPSGIPDRFSGSKSGTSATLGITGLQTGDEADYYCGTWDSSLSALVFGGGTKLTVL
notes: as for B1
B10 displayed an OD450 in test [1] of 2.24 OD450.

B11: FI 3A (antibody, V domains shown)
VH: EVQLLESGGGLIQPGGSLRLSCAASGFTVSSNYMSWVRQAPGKGLEWVSVIYSGGSTYYADSVKGRFTISRDNSKNTLYLQMNSLRAEDTAVYYCARDHVRPGMNIWGQGTMVTVSS
VL: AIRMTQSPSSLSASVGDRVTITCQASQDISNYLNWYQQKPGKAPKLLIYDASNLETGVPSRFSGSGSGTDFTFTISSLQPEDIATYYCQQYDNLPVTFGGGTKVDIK
notes: as for B1
The molecule B11 came in with an OD450 in test [1] of 1.6 OD450. For the same molecule, the binding result in test [2] is recorded as “binds”.

B12: FJ 4E (antibody, V domains shown)
VH: QVQLVESGPGLVKPSETLSLTCSVSGGSISSGTYYWSWIRQQPGKGLEWIGYIYNTGRPYYNPFLKSRITISVDSSKNQFSLKLTSVTAADTAVYYCARDEYDSSDSGIQGHWFDPWGQGTLVTVSS
VL: AIRMTQSPSSLSASVGDRVTITCRTSQNINSFLNWYQQKPGKGPNLLIYGAFTLQSGVPSRFSGSGSGTDFTLTISSLQPEDFATYFCQQSYSTPWTFGQGTKVEIK
notes: as for B1
On to B12, for which the OD450 in test [1] is 0.26 OD450.

B13: FD 10A (antibody, V domains shown)
VH: EVQLVESGGGLVQPGGSLRLSCAASGFTFSSYWMHWVRQAPGKGLVWVSRINSDGSSTSYADSVKGRFTISRDNAKNTLYLQMNSLRAEDTAVYYCANMAFDIWGQGTMVTVSS
VL: not shown
notes: as for B1
The molecule B13 showed an OD450 in test [1] of 1.78 OD450.

B14: FG 12C (antibody, V domains shown)
VH: EVQLVESGGGLVQPGRSLRLSCAASGFTFDDYAMHWVRQAPGKGLEWVSGISWNSGSIGYADSVKGRFTISRDNAKNSLYLQMNSLRAEDTALYYCAKDMRVHDYGDYYFDYWGQGTLVTVSS
VL: SYELTQPPSVSVAPGKTARITCGGNNIGSKSVHWYQQKPGQAPVLVIYYDSDRPSGIPERFSGSNSGNTATLTISRVEAGDEADYYCQVWDSSSDHPVFGGGTKLTVL
notes: as for B1
Consider B14, for which the OD450 in test [1] was found to be 1.74 OD450.

B15: FM 1A (antibody, V domains shown)
VH: EVQLLESGGGVVQPGRSLRLSCAASGFTFSSYGMHWVRQAPGKGLEWVAVIWYDGSNKYYADSVKGRFTISRDNSKNTLYLQMNSLRAEDTAVYYCAREGAVGATRGFDYWGQGTLVTVSS
VL: B14 VL with K16Q, I47V, Y49D, H96Q, P97G
notes: as for B1
As for B15, in test [1], the OD450 came to 0.25 OD450.

B16: FN 8C (antibody, V domains shown)
VH: QVQLVESGGGVVQPGRSLRLSCAASGFTFSSYGMHWVRQAPGKGLEWVAVISYDGSNKYYADTVKGRFTISRDNSKNTLYLQMNSLRAEDTAVYYCARERTYYDILTGYRHYYGMDVWGQGTTVTVSS
VL: B14 VL with K16Q, I47V, Y49D, P97W
notes: as for B1
B16 returned an OD450 in test [1] of 0.54 OD450.

B17: FI 1C (antibody, V domains shown)
VH: EVQLVESGGGLVKPGGSLRLSCAASGFTFSDYYMSWIRQAPGKGLEWVSYISSSGSTIYYADSVKGRFTISRDNAKNSLYLQMNSLRAEDTAVYYCARRSNRFLIAFDIWGQGTMVTVSS
VL: QSALTQPASVSGSPGQTITISCTGTSSDVGGYNYVSWYQQHPGKAPKLMIYEVSNRPSGVSNRFSGSKSGNTASLTISGLQAEDEADYYCSSYTSSSTLVVFGGGTKLTVP
notes: as for B1
The molecule B17 came in with an OD450 in test [1] of 1.88 OD450. Further, the binding result in test [2] is “binds”.

B18: FD 11A (antibody, V domains shown)
VH: EVQLVESGGGVVQPGRSLRLSCAASGFTFSSYGMHWVRQAPGKGLEWVAVIWYDGSNKYYADSVKGRFTISRDNSKNTLYLQMNSLRAEDTAVYYCAKGPDILTGYYNYYYYGMDVWGQGTMVTVSS
VL: QSVLTQPPSVSGAPGQRVTISCTGSSSNIGAGYDVHWYQQLPGTAPKLLIYGNSNRPSGVPDRFSGSKSGTSASLAITGLQAEDEADYYCQSYDSSLSGFYVVFGGGTKLTVL
notes: as for B1
Molecule B18 registered an OD450 in test [1] of 1.64 OD450. Further, the binding result in test [2] is “binds”.

B19: FD 11E (antibody, V domains shown)
VH: EVQLVESGGGLVKPGGSLRLSCAASGFTFSSYSMNWVRQAPGKGLEWVSSISSSSSYIYYADSVKGRFTISRDNAKNSLYLQMNSLRAEDTAVYYCASLAAAGPETYYYYGMDVWGQGTMVTVSS
VL: not shown
notes: as for B1
In test [1], B19 yielded an OD450 of 1.45 OD450. Moreover, in test [2], the binding result is reported as “binds”.

B20: FD 1E (antibody, V domains shown)
VH: B19 VH with V5L
VL: not shown
notes: as for B1
As to B20, the OD450 in test [1] was found to be 1.45 OD450. The binding result in test [2] is on record as “binds”.

B21: FD 5D (antibody, V domains shown)
VH: EVQLVESGGGLVQPGGSLRLSCAASGFTFSSYSMNWVRQAPGKGLEWVSYISSSSSTIYYADPVKGRFTISRDNAKNSLYLQMNSLRAEDTAVYYCASPGGITAAGTSVLFGYYGMDVWGQGTMVTVSS
VL: not shown
notes: as for B1
In test [1], B21 had an OD450 of 1.83 OD450.

B22: FD 8B (antibody, V domains shown)
VH: EVQLLESGAEVKKPGASVKVSCKVSGYTLTELSMHWVRQAPGKGLEWMGGFDPEDGETIYAQKFQGRVTMTEDTSTDTAYMELSSLRSEDTAVYYCATAAAINCSSTSCYYYYYYYGMDVWGQGTTVTVSS
VL: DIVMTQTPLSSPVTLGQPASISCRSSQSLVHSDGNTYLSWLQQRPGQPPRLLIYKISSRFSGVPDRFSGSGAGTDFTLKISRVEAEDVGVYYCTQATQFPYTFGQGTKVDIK
notes: as for B1
Regarding B22, the OD450 in test [1] amounted to 1.1 OD450.

B23: FJ 10B (antibody, V domains shown)
VH: QVQLVQSGAEVKKPGESLRISCKGSGYSFTSYWISWVRQMPGKGLEWMGRIDPSDSYTNYSPSFQGHVTISADKSISTAYLQWSSLKASDTAMYYCARLDPRYGPDYYGMDVWGQGTTVTVSS
VL: AIRMTQSPSSLSASVGDRVTITCRASQSISSYLNWYQQKPGKAPKLLIHAASSLQSGVPSRFSGSGSGTDFTLTMSSLQPEDFATYYCQQSYSTPLTFGGGTKVEIR
notes: as for B1
Molecule B23 gave an OD450 in test [1] of 1.48 OD450.
